The source of these data is patent US8338168B2.

Bounds are passed on as bounds.

Test [1] concerns the target RDPrHIV mutant glycoprotein (feline endogenous virus RD114).
The target of test [2] is CH-296 retronectin fragment (Homo sapiens (Human)) (UniProt P02751).

Turning to MLV viral core protease (enzyme), in test [1], the infectivity of MLV pseudotyped vectors on TE671 cells is less than 20 fold. In test [2], RD114/TR chimeric glycoprotein showed a transduction efficiency of human CD34+ cells on retronectin-coated plates against no retronectin of 10 fold.
